# From US20170252458A1 (EISAI R AND D MANAGEMENT, published 2017)
# “And” between values parts separate entries of the source, which are not always exact repeats. Equal values may be shown once.
# B1: 111B10-xi (antibody, human IgG1, kappa, V domains shown)
# VH: QSVEESGGRLVTPGTPLTLTCTVSGFSLNNYAMSWVRQAPGKGLEWIGSISTGGLAFYANWAKGRFTISRTSTTVDLKMTSLTTEDTATYFCGRNGGGSYIFYYFDLWGQGTLVTVSS
# VL: AFELTQTPSSVEAAVGGTITIKCQASQSISSYLSWYQQKPGQPPKLLIYSASTLASGVSSRFKGSGSGTEYTLTISDLECADAATYFCQSYYDIGTSTFGGGTEVVVKR
# notes: Rabbit-human chimeric anti-human mesothelin with unpaired cysteine at LCcys80; parental mAb in Biacore; also called 111810 xi
# B2: 346C6-zu (antibody, human IgG1, kappa, V domains shown)
# VH: EVQLVESGGGLVQPGGSLRLSCAASGFSLSSYAMIWVRQAPGKGLEWIGTISTGGITYYASWAKGRFTISRDNSKNTLYLQMNSLRAEDTAVYYCARGGYAASSAYYLPYYFDLWGQGTLVTVSS
# VL: DIQMTQSPSSLSASVGDRVTITCQSSQSVYNNNNLAWYQQKPGKVPKLLIYLASTLASGVPSRFSGSGSGTDFTLTISSLQCEDAATYYCLGGCDDDADTFAFGGGTKVEIKR
# notes: Humanized anti-human mesothelin with unpaired cysteine at LCcys80; parental mAb in Biacore
# B3: 201C15-zu (antibody, human IgG1, kappa, V domains shown)
# VH: QVQLVESGGGLVQPGGSLRLSCSASGIDLSSYAMGWVRQAPGKGLEYIGTINIGGRVYYASWAKGRFTISRDNSKNTLYLQMNSLRAEDTAVYYCARYYNGGSYDIWGQGTLVTVSS
# VL: DIQMTQSPSTLSASVGDRVTITCQASESIYRVLAWYQQKPGKAPKLLIYDTSTLASGVPSRFSGSGSGTEFTLTISSLQCDDAATYYCQGGYYADSYGIAFGGGTKVEIKR
# notes: as for B2
# B4: 346C6-xi (antibody, human IgG1, kappa, V domains shown)
# VH: QSVEESGGRLVKPDESLTLTCTASGFSLSSYAMIWVRQAPGEGLEWIGTISTGGITYYASWAKGRFTISKTSTTVDLKITSPTTEDTATYFCARGGYAASSAYYLPYYFDLWGQGTLVTVSS
# VL: AAVLTQTPSPVSAAVGGTVTISCQSSQSVYNNNNLAWFQQKPGQPPKLLIYLASTLASGVPSRFSGSGSGTQFTLTISGVQCDDAATYYCLGGCDDDADTFAFGGGTEVVVKR
# notes: Rabbit-human chimeric anti-human mesothelin with unpaired cysteine at LCcys80; parental mAb in Biacore
# B5: 33011-zu (antibody, human IgG1, kappa, V domains shown)
# VH: EVQLVESGGGLVQPGGSLRLSCAASGISLSSDAISWVRQAPGKGLEYIGIINGGGNTYYASWAKGRFTISRHNSKNTLYLQMNSLRAEDTAVYYCARGIQHGGGNSDYYYYGMDLWGQGTLVTVSS
# VL: DIQMTQSPSSLSASVGDRVTITCQASQSISSVLSWYQQKPGKAPKLLIYLASTLASGVPSRFSGSGSGTDFTLTISSLQCEDIATYYCQTNYGTSSSNYGFAFGGGTKVEIKR
# notes: Humanized anti-human mesothelin with unpaired cysteine at LCcys80; parental (unconjugated) mAb in Biacore; also called 33O11 zu
# B6: MORAb-003-VCP-eribulin (MORAb-202) (antibody, human IgG1, kappa, V domains shown)
# VH: EVQLVESGGGVVQPGRSLRLSCSASGFTFSGYGLSWVRQAPGKGLEWVAMISSGGSYTYYADSVKGRFAISRDNAKNTLFLQMDSLRPEDTGVYFCARHGDDPAWFAYWGQGTPVTVSS
# VL: DIQLTQSPSSLSASVGDRVTITCSVSSSISSNNLHWYQQKPGKAPKPWIYGTSNLASGVPSRFSGSGSGTDYTFTISSLQPEDIATYYCQQWSSYPYMYTFGQGTKVEIKR
# modifications: Mal-PEG2-Val-Cit-pAB-eribulin on interchain cysteines, sites not given
# B7: MORAb003-DBCO-PEG4 eribulin (antibody, human IgG1, kappa, V domains shown)
# VH: EVQLVESGGGVVQPGRSLRLSCSASGFTFSGYGLSWVRQAPGKGLEWVAMISSGGSYTYYADSVKGRFAISRDNAKNTLFLQMDSLRPEDTGVYFCARHGDDPAWFAYWGQGTPVTVSS
# VL: DIQLTQSPSSLSASVGDRVTITCSVSSSISSNNLHWYQQKPGKAPKPWIYGTSNLASGVPSRFSGSGSGTDYTFTISSLQPEDIATYYCQQWSSYPYMYTFGQGTKVEIKR
# modifications: NHS-PEG4-DBCO on lysines, then azido-PEG4-eribulin by SPAAC; sites not given
# notes: Antibody-drug conjugate
# B8: MORAb003-DBCO-PEG4 VCP eribulin (antibody, human IgG1, kappa, V domains shown)
# VH: EVQLVESGGGVVQPGRSLRLSCSASGFTFSGYGLSWVRQAPGKGLEWVAMISSGGSYTYYADSVKGRFAISRDNAKNTLFLQMDSLRPEDTGVYFCARHGDDPAWFAYWGQGTPVTVSS
# VL: DIQLTQSPSSLSASVGDRVTITCSVSSSISSNNLHWYQQKPGKAPKPWIYGTSNLASGVPSRFSGSGSGTDYTFTISSLQPEDIATYYCQQWSSYPYMYTFGQGTKVEIKR
# modifications: NHS-PEG4-DBCO on lysines, then azido-PEG4-Val-Cit-pAB-eribulin by SPAAC; sites not given
# notes: Antibody-drug conjugate
# B9: MORAb003-DBCO-PEG2 eribulin (antibody, human IgG1, kappa, V domains shown)
# VH: EVQLVESGGGVVQPGRSLRLSCSASGFTFSGYGLSWVRQAPGKGLEWVAMISSGGSYTYYADSVKGRFAISRDNAKNTLFLQMDSLRPEDTGVYFCARHGDDPAWFAYWGQGTPVTVSS
# VL: DIQLTQSPSSLSASVGDRVTITCSVSSSISSNNLHWYQQKPGKAPKPWIYGTSNLASGVPSRFSGSGSGTDYTFTISSLQPEDIATYYCQQWSSYPYMYTFGQGTKVEIKR
# modifications: NHS-PEG4-DBCO on lysines, then azido-PEG2-eribulin by SPAAC; sites not given
# notes: Antibody-drug conjugate
# B10: MORAb003-DBCO-ER1138856 (antibody, human IgG1, kappa, V domains shown)
# VH: EVQLVESGGGVVQPGRSLRLSCSASGFTFSGYGLSWVRQAPGKGLEWVAMISSGGSYTYYADSVKGRFAISRDNAKNTLFLQMDSLRPEDTGVYFCARHGDDPAWFAYWGQGTPVTVSS
# VL: DIQLTQSPSSLSASVGDRVTITCSVSSSISSNNLHWYQQKPGKAPKPWIYGTSNLASGVPSRFSGSGSGTDYTFTISSLQPEDIATYYCQQWSSYPYMYTFGQGTKVEIKR
# modifications: NHS-PEG4-DBCO on lysines, then azide-PEG3-sulfonamide-pAB-eribulin by SPAAC; sites not given
# notes: Antibody-drug conjugate
# B11: 111B10-zu (antibody, human IgG1, kappa, V domains shown)
# VH: EVQLVESGGGLVQPGGSLRLSCAASGFSLNNYAMSWVRQAPGKGLEWIGSISTGGLAFYANWAKGRFTISRDNSKNTLYLQMNSLRAEDTAVYYCARNGGGSYIFYYFDLWGQGTLVTVSS
# VL: DIQMTQSPSSLSASVGDRVTITCQASQSISSYLSWYQQKPGKAPKLLIYSASTLASGVPSRFSGSGSGTDFTLTISSLQCEDAATYYCQSYYDIGTSTFGGGTKVEIKR
# notes: Humanized anti-human mesothelin with unpaired cysteine at LCcys80; parental mAb in Biacore; also called 111810 zu
# B12: 201C15-xi (antibody, human IgG1, kappa, V domains shown)
# VH: QSVKESGGRLVTPGTPLTLTCTVSGIDLSSYAMGWFRQAPGKGLEYIGTINIGGRVYYASWAKGRFTISRTSTTVDLKAPSLTAEDTATYFCARYYNGGSYDIWGPGTLVTVSL
# VL: DVVMTQTPASASEPVGGTVTIKCQASESIYRVLAWYQQKPGQPPKLLIYDTSTLASGAPSRFKGSGYGTEFTLTISGVQCEDAATYYCQGGYYADSYGIAFGGGTEVVVKR
# notes: as for B4
# Tests used:
# [1] = target: T1, Recombinant human mesothelin (human, UniProt Q13421 296-580, limits assumed); assay: Biacore T100, antibody captured on anti-human IgG, antigen injected, 1:1 Langmuir
# T1 construct: also called MSLN
# Experimental: Antibody concentrations were adjusted to 2 μg/mL in HBS-P+ buffer (GE Healthcare). Unmodified antibodies, or ADCs, were injected over an anti-human IgG sensor on a BIAcore T100 (GE Healthcare) for 1 min at a flow rate of 10 μL/min. To record the antigen association to the captured antibody, a series of increasing concentrations of antigen was injected for 300 sec at a flow rate of 30 μL/min. […] The dissociation of antigen was monitored for 30 min at the same flow rate. The sensor surface was regenerated by injecting 3 M MgCl₂ for 2×30 sec at a flow rate of 30 μL/min. Sensograms were analyzed with Biacore T100 Evaluation Software using a 1:1 Langmuir binding model.
# Binding affinities of the parental antibodies were determined by Biacore analysis, as described above in section 1.6.1. Aggregation levels for all anti-human mesothelin ADCs were determined by SEC-HPLC and the DAR was analyzed using HIC-HPLC. In vitro potency was evaluated using a Crystal Violet cell-based cytotoxicity assay in A3 (A431 stabily transfected with human mesothelin (MSLN), MSLN^hi), OVCAR3 (human ovarian, MSLN^hi), HEC-251 (human endometroid, MSLN^med), H226 (human lung squamous cell mesothelioma, MSLN^lo, and A431 parental (MSLN^neg) cells. The results of the DAR, aggregation, and cytotoxicity analyses are shown in Table 50.
# [2] = target: T2, Human folate receptor alpha on tumor cells (human, UniProt P15328 25-234); assay: cell-based or functional assay
# [3] = target: T2, Human folate receptor alpha on tumor …; assay: cell-based or functional assay; remark: listed apart in the source
# [4] = target: T3, Recombinant human folate receptor alpha (human, UniProt P15328 25-234); assay: ELISA, recombinant human FRA coated
# T3 construct: also called FRA; FR
# Experimental: Coating solution was discarded and the plates were washed three times using 1× PBS with 0.05% Tween-20 (PBST) buffer. Plates were blocked in 300 μL blocking buffer (1% BSA in PBST) at room temperature for 2 hours on an orbital shaker. […] Blocking buffer was discarded and 100 μL/well of diluted antibody was added to the plates. Plates were incubated at room temperature for 2 hours on an orbital shaker. Antibody solution was discarded and plates were washed three times using PBST. 100 μL/well of goat-anti-human IgG (H+L)-HRP (1:10,000 dilution in blocking buffer) solution was added to the plates, and plates were incubated at room temperature for 1 hour on an orbital shaker. Secondary antibody solution was discarded and plates were washed three times using PBST. 100 μL/well of QuantaBlu fluorogenic peroxidase substrate working solution (Thermo, Cat No. 15169) was added to the plates, and plates were incubated at room temperature for 30 min. Fluorescence was read at excitation 325 nm/emission 420 nm using a SpectraMax M5 (Molecular Devices). Data was analyzed using SoftMaxPro 5.4.2 software with 4-parameter fitting.
# T2 sequence (P15328 25-234 limits assumed): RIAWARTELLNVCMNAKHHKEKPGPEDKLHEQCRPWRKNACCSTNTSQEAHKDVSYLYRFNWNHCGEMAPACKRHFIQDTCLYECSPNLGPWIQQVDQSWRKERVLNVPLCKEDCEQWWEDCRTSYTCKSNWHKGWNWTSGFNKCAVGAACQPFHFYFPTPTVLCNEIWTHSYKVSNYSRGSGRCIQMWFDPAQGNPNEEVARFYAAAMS
# T3 sequence (P15328 25-234 limits assumed): as above
# T1 sequence (Q13421 other isoform, or with tags, fused parts or gaps limits assumed): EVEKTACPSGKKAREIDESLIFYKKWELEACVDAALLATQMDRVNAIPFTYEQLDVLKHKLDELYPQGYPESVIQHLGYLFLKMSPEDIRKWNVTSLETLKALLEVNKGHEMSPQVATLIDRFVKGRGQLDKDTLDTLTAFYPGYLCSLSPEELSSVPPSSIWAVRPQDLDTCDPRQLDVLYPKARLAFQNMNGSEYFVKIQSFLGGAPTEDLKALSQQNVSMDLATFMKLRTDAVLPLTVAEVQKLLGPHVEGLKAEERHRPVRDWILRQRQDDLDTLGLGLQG
Binder,Kd [1] [nM],EC50 [4],further results
B1,6.3,–,–
B2,6.9,–,–
B3,4.2,–,–
B4,1.4,–,–
B5,3.4,–,–
B6,–,–,"Cytotoxicity EC50 (nM), A431-A3 (FR+/-), Crystal Violet assay [2]: 23 nM; Cytotoxicity EC50 (nM), IGROV I (FR+++), Crystal Violet assay [2]: 0.01 nM; Cytotoxicity EC50 (nM), NCI-H2110 (FR++), Crystal Violet assay [2]: 0.74 nM; Cytotoxicity EC50 (nM), OVCAR3 (FR++), Crystal Violet assay [2]: 0.16 nM; IC50 (read off the curve), % survival of IGROV1 cells, conjugate alone [3]: ~0.03 nM; IC50 (read off the curve), % survival of IGROV1 cells, in the presence of 2 µM unconjugated MORAb-003 as competitor [3]: ~3 nM"
B7,–,0.0133 µg/mL and 0.09 nM,–
B8,–,0.016 µg/mL and 0.11 nM,–
B9,–,0.0191 µg/mL and 0.13 nM,–
B10,–,0.015 µg/mL and 0.1 nM,–
B11,8.5,–,–
B12,1.1,–,–
